From patent publication US20040077045A1

Biological target: T1, HLA-DR13 (DRB1*1301), purified (human)
T1 chain 1: not shown
T1 chain 2: not shown
Experiment: competition on purified HLA-DR (DRB1*1301) against biotinylated B1 21-36 (200 nM, pH 4.5); fluorescence assay

Binder: TERVRLVTRHIYNREE (modifications not checked) [B1 21-36 (…), unlabeled reference peptide]
- IC50: 390 nM
